# Assay results as given in IntAct's records for PubMed 35512704.
# B1: Speckle-type POZ protein (Homo sapiens), O43791 (parent)
# chain: MSRVPSPPPPAEMSSGPVAESWCYTQIKVVKFSYMWTINNFSFCREEMGEVIKSSTFSSGANDKLKWCLRVNPKGLDEESKDYLSLYLLLVSCPKSEVRAKFKFSILNAKGEETKAMESQRAYRFVQGKDWGFKKFIRRDFLLDEANGLLPDDKLTLFCEVSVVQDSVNISGQNTMNMVKVPECRLADELGGLWENSRFTDCCLCVAGQEFQAHKAILAARSPVFSAMFEHEMEESKKNRVEINDVEPEVFKEMMCFIYTGKAPNLDKMADDLLAAADKYALERLKVMCEDALCSNLSVENAAEILILADLHSADQLKTQAVDFINYHASDVLETSGWKSMVVSHPHLVAEAYRSLASAQCPFLGPPRKRLKQS
# partner: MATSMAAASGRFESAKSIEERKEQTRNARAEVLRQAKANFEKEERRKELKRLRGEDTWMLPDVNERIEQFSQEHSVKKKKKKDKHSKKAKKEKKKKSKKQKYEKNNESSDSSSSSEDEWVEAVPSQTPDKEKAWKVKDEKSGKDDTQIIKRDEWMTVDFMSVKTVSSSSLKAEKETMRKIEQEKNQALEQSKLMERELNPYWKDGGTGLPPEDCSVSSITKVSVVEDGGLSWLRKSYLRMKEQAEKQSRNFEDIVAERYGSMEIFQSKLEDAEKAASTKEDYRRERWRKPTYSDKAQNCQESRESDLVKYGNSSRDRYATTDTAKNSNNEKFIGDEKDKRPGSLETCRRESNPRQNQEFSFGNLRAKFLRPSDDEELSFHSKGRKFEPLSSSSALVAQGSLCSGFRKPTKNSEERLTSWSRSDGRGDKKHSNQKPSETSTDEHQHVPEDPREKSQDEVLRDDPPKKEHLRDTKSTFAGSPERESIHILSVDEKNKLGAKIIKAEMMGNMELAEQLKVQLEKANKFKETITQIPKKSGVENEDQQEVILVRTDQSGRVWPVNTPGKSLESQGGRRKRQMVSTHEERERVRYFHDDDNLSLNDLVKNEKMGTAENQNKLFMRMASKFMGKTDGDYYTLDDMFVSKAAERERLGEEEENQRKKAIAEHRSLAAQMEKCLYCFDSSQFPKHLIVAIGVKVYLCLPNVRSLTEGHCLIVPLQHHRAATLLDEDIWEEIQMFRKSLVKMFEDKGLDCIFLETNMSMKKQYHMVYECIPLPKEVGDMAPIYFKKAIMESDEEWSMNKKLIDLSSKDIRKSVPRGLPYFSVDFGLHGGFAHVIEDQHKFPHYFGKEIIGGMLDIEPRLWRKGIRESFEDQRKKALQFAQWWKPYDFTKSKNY
# B2: Speckle-type POZ protein (Homo sapiens), O43791 (parent)
# chain: B1 chain
# partner: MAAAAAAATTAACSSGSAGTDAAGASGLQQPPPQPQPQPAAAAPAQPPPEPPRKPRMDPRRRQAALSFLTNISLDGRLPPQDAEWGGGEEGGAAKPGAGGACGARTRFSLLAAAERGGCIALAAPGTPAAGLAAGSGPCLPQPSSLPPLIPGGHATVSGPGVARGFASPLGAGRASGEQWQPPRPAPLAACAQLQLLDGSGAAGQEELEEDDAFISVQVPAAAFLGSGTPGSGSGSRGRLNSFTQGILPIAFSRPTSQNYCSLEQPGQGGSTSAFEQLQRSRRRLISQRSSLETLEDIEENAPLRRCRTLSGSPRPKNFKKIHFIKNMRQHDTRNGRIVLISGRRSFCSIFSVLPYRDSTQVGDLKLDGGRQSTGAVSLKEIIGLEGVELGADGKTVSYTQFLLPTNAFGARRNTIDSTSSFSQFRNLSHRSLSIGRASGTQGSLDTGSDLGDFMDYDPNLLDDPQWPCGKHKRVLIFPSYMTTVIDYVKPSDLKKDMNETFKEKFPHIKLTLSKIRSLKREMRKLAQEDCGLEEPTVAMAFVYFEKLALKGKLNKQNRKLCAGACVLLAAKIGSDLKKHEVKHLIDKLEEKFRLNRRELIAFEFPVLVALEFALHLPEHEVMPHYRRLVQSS
# B3: Speckle-type POZ protein (Homo sapiens), O43791 (parent)
# chain: B1 chain
# partner: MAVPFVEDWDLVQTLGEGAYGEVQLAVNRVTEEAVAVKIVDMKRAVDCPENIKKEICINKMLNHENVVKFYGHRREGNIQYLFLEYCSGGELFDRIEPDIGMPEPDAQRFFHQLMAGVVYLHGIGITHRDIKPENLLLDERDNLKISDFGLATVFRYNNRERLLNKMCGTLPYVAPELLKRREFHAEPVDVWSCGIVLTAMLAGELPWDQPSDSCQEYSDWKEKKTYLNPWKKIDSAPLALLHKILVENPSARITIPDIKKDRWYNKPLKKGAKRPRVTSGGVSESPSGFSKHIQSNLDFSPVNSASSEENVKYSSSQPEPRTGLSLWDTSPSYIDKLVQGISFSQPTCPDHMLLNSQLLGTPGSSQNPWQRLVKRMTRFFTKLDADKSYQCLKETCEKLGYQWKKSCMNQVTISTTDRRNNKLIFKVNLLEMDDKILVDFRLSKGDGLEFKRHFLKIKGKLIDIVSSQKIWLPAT
# Variants of: B1
# Settings: with CWF19L2, Q2TBE0
row,Variant,effect of a mutation on the interaction
1,MSRVPSPPPPAEMSSGPVAESWCYTQIKVVKFSYMWTINNFSFCREEMGEVIKSSTFSSGANDKLKWCLRVNPKGLDEESKDYLSLYLLLVSCPKSEVRAKCKFSILNAKGEETKAMESQRAYRFVQGKDWGFKKFIRRDFLLDEANGLLPDDKLTLFCEVSVVQDSVNISGQNTMNMVKVPECRLADELGGLWENSRFTDCCLCVAGQEFQAHKAILAARSPVFSAMFEHEMEESKKNRVEINDVEPEVFKEMMCFIYTGKAPNLDKMADDLLAAADKYALERLKVMCEDALCSNLSVENAAEILILADLHSADQLKTQAVDFINYHASDVLETSGWKSMVVSHPHLVAEAYRSLASAQCPFLGPPRKRLKQS [F102C],with no effect

# Variants of: B2
# Settings: with cabl1_human CABLES1, Q8TDN4
row,Variant,effect of a mutation on the interaction
1,MSRVPSPPPPAEMSSGPVAESWCYTQIKVVKFSYMWTINNFSFCREEMGEVIKSSTFSSGANDKLKWCLRVNPKGLDEESKDYLSLCLLLVSCPKSEVRAKFKFSILNAKGEETKAMESQRAYRFVQGKDWGFKKFIRRDFLLDEANGLLPDDKLTLFCEVSVVQDSVNISGQNTMNMVKVPECRLADELGGLWENSRFTDCCLCVAGQEFQAHKAILAARSPVFSAMFEHEMEESKKNRVEINDVEPEVFKEMMCFIYTGKAPNLDKMADDLLAAADKYALERLKVMCEDALCSNLSVENAAEILILADLHSADQLKTQAVDFINYHASDVLETSGWKSMVVSHPHLVAEAYRSLASAQCPFLGPPRKRLKQS [Y87C],with no effect

# Variants of: B2
# Settings: with cabl1_human CABLES1, Q8TDN4
# Remark: another data set of the same source
row,Variant,effect of a mutation on the interaction
1,MSRVPSPPPPAEMSSGPVAESWCYTQIKVVKFSYMWTINNFSFCREEMGEVIKSSTFSSGANDKLKWCLRVNPKGLDEESKDYLSLYLLLVSCPKSEVRAKFKFSILNAKGEETKAMESQRAYRFVQGKDWGLKKFIRRDFLLDEANGLLPDDKLTLFCEVSVVQDSVNISGQNTMNMVKVPECRLADELGGLWENSRFTDCCLCVAGQEFQAHKAILAARSPVFSAMFEHEMEESKKNRVEINDVEPEVFKEMMCFIYTGKAPNLDKMADDLLAAADKYALERLKVMCEDALCSNLSVENAAEILILADLHSADQLKTQAVDFINYHASDVLETSGWKSMVVSHPHLVAEAYRSLASAQCPFLGPPRKRLKQS [F133L],with no effect

# Variants of: B2
# Settings: with cabl1_human CABLES1, Q8TDN4
# Remark: another data set of the same source
row,Variant,effect of a mutation on the interaction
1,MSRVPSPPPPAEMSSGPVAESWCYTQIKVVKFSYMWTINNFSFCREEMGEVIKSSTFSSGANDKLKWCLRVNPKGLDEESKDYLSLYLLLVSCPKSEVRAKFKFSILNAKGEETKAMESQRAYRFVQGKDWGVKKFIRRDFLLDEANGLLPDDKLTLFCEVSVVQDSVNISGQNTMNMVKVPECRLADELGGLWENSRFTDCCLCVAGQEFQAHKAILAARSPVFSAMFEHEMEESKKNRVEINDVEPEVFKEMMCFIYTGKAPNLDKMADDLLAAADKYALERLKVMCEDALCSNLSVENAAEILILADLHSADQLKTQAVDFINYHASDVLETSGWKSMVVSHPHLVAEAYRSLASAQCPFLGPPRKRLKQS [F133V],with no effect

# Variants of: B3
# Settings: with chk1_human CHEK1, O14757
row,Variant,effect of a mutation on the interaction
1,MSRVPSPPPPAEMSSGPVAESWCYTQIKVVKFSYMWTINNFSFCREEMGEVIKSSTFSSGANDKLKWCLRVNPKGLDEESKDYLSLYLLLVSCPKSEVRAKFKFSILNAKGEETKAMESQRAYRFVQGKDWGVKKFIRRDFLLDEANGLLPDDKLTLFCEVSVVQDSVNISGQNTMNMVKVPECRLADELGGLWENSRFTDCCLCVAGQEFQAHKAILAARSPVFSAMFEHEMEESKKNRVEINDVEPEVFKEMMCFIYTGKAPNLDKMADDLLAAADKYALERLKVMCEDALCSNLSVENAAEILILADLHSADQLKTQAVDFINYHASDVLETSGWKSMVVSHPHLVAEAYRSLASAQCPFLGPPRKRLKQS [F133V],with no effect

# Variants of: B3
# Settings: with chk1_human CHEK1, O14757
# Remark: another data set of the same source
row,Variant,effect of a mutation on the interaction
1,MSRVPSPPPPAEMSSGPVAESWCYTQIKVVKFSYMWTINNFSFCREEMGEVIKSSTFSSGANDKLKWCLRVNPKGLDEESKDYLSLYLLLVSCPKSEVRAKFKFSILNAKGEETKAMESQRAYRFVQGKDWGLKKFIRRDFLLDEANGLLPDDKLTLFCEVSVVQDSVNISGQNTMNMVKVPECRLADELGGLWENSRFTDCCLCVAGQEFQAHKAILAARSPVFSAMFEHEMEESKKNRVEINDVEPEVFKEMMCFIYTGKAPNLDKMADDLLAAADKYALERLKVMCEDALCSNLSVENAAEILILADLHSADQLKTQAVDFINYHASDVLETSGWKSMVVSHPHLVAEAYRSLASAQCPFLGPPRKRLKQS [F133L],with no effect

# Variants of: B3
# Settings: with chk1_human CHEK1, O14757
# Remark: another data set of the same source
row,Variant,effect of a mutation on the interaction
1,MSRVPSPPPPAEMSSGPVAESWCYTQIKVVKFSYMWTINNFSFCREEMGEVIKSSTFSSGANDKLKWCLRVNPKGLDEESKDYLSLYLLLVSCPKSEVRAKCKFSILNAKGEETKAMESQRAYRFVQGKDWGFKKFIRRDFLLDEANGLLPDDKLTLFCEVSVVQDSVNISGQNTMNMVKVPECRLADELGGLWENSRFTDCCLCVAGQEFQAHKAILAARSPVFSAMFEHEMEESKKNRVEINDVEPEVFKEMMCFIYTGKAPNLDKMADDLLAAADKYALERLKVMCEDALCSNLSVENAAEILILADLHSADQLKTQAVDFINYHASDVLETSGWKSMVVSHPHLVAEAYRSLASAQCPFLGPPRKRLKQS [F102C],with no effect

# Variants of: B3
# Settings: with chk1_human CHEK1, O14757
# Remark: another data set of the same source
row,Variant,effect of a mutation on the interaction
1,MSRVPSPPPPAEMSSGPVAESWCYTQIKVVKFSYMWTINNFSFCREEMGEVIKSSTFSSGANDKLKWCLRVNPKGLDEESKDYLSLCLLLVSCPKSEVRAKFKFSILNAKGEETKAMESQRAYRFVQGKDWGFKKFIRRDFLLDEANGLLPDDKLTLFCEVSVVQDSVNISGQNTMNMVKVPECRLADELGGLWENSRFTDCCLCVAGQEFQAHKAILAARSPVFSAMFEHEMEESKKNRVEINDVEPEVFKEMMCFIYTGKAPNLDKMADDLLAAADKYALERLKVMCEDALCSNLSVENAAEILILADLHSADQLKTQAVDFINYHASDVLETSGWKSMVVSHPHLVAEAYRSLASAQCPFLGPPRKRLKQS [Y87C],with no effect
